Reference: patent US12365710B2, “HMGB1 protein derivatives for the removal of biofilms” (RESEARCH INSTITUTE AT NATIONWIDE CHILDREN'S HOSPITAL, priority 2018, dated 2025)
Where two headings read alike, the source gives them in different places.

System: B. cenocepacia
Format: in vivo, C57BL/6 mice
Details: for Bc CFU in lung tissue / Bc CFU in BAL: 10^7 CFU Bc i.t. with 0.2 nmol protein simultaneously, 18 h; for Bc CFU in lung tissue: data not shown, P<0.05; for Bc CFU in BAL: vs control mice; for aggregate biofilm formation / development in vivo: lung model, 0.2 nmol given simultaneously with Bc; for lung damage, H&E histology: mouse, in vivo
Description: FIGS. 7A-7G: HMGB1 promotes clearance of S. cenocepaca from mice without inducing sepsis. C57BL/6 mice were challenged with 10^7 CFU intratracheally, and either simultaneously (prevention) or 24 h later (treatment) received 0.2 nmol of HMGB1 valiant. (FIG. 7A) Aggregates of B. cenocepacia were visible by fluorescence microscopy in lung sections probed with an α-B. cenocepacia antibody. For prevention, (FIG. 7B) bronchoalveolar lavage (BAL) collected 18 h post-inoculation (hpi) was analyzed for CFU. (FIG. 7C) Neutrophils in BAL were quantified by differential cell counting. (FIG. 7D) Lung tissue collected 72hpi was fixed, embedded, sectioned, and stained with hematoxylin & eosin (10× magnification). For treatment, 72hpi (FIG. 7E) CFUs were quantified in BAL. (FIG. 7F) Neutrophil recruitment was analyzed 24 h after intraperitoneal (i.p.) administration of HMGB1 valiants by fluorescence-activated cell sorting of peritoneal lavage stained with α-CD45, α-CD11b, and αLy-6G. (FIG. 7G) Serum TNF-α. was measured by ELISA in mice injected i.p. with 0.2 nmol HMGB1 valiants, 5 mg/kg LPS, or both. LoD: limit of detection. Bars represent SD. *P<0.05.
Applicant's novel approach of using a non-antimicrobial agent like HMGB1 protein and its variants for the treatment of biofilm related infections epitomizes a radical departure from classic therapeutic concepts. Full length HMGB1 and the smallest variant tested to date with the greatest disruption activity found in vitro, B Box and the modified B Box (mB Box) where the cysteine at position 106 was mutated to a serine to abrogate its inflammatory inducing ability, were tested in vivo for biofilm disruption and inflammatory activity (FIG. 7).
rHMGB1 and mHMGB1 disrupt biofilms in two distinct animal models but the inflammatory response is strongly attenuated with Cys to Ser mutations: Applicant tested both rHMGB1 and mHMGB1 for their ability to treat middle ear infection and the corresponding inflammatory response using a well-established chinchilla model of experimental OM due to NTHI49,67,68 wherein adhered mucosal biofilm formation plays a key role in pathogenesis (FIG. 8A). The middle ear of mixed sex, outbred adult chinchillas were inoculated with 1000 CFU NTHI by transbullar injection. At days 4 and 5 post-challenge, at which time there is abundant biofilm present in the middle ear space, […] of rHMGB1, mHMGB1, or diluent was delivered directly to the middle ear (2 total treatments). On day 6, animals were sacrificed and middle ears were imaged and blindly scored for biofilm that remained (FIG. 8A) and mucosal inflammation (FIG. 8B). […] In contrast, MEFs from mHMGB1-treated animals had increased anti-inflammatory cytokines [IL-4 (2-fold), IL-10 (5-fold)] […] Next, Applicant determined whether rHMGB1 or mHMGB1 could prevent or […] biofilm development. For prevention, adult C57BL/6 mice were challenged with 10^7 CFU of Bc intratracheally (i.t.), and 0.2 nmol of rHMGB1 or mHMGB1 was added simultaneously. After 18 h, mice were euthanized, and bronchoalveolar lavage (BAL) and lungs were collected. Bc formed aggregates that were readily visible in lung sections probed with Bc antibody (FIG. 7A). Tissue was homogenized and CFUs were enumerated. […] This same animal model was then used to investigate lung damage 72 h post-challenge with Bc and administration of rHMGB1 or mHMGB1. Lungs were collected and tissue was fixed, embedded in paraffin, sectioned, and stained with Haematoxylin and Eosin (H&E). […] Next, Applicant assessed the ability of rHMGB1 and mHMGB1 to treat established Bc infection. Mice were challenged as above and 0.2 nmol rHMGB1 or mHMGB1 was administered 24 h later. 48 h after treatment, mice were euthanized and BAL and lungs were collected and processed as above. […] To further validate the reduced pro-inflammatory activity of mHMGB1, Applicant used an in vivo model of chemotaxis to determine relative ability to recruit neutrophils70,71. […]

Row | Molecule | Bc CFU in lung tissue | Bc CFU in BAL | aggregate biofilm formation / development in vivo | lung damage, H&E histology | inflammatory response in the lung model (0.2 nmol) | aggregate biofilm formation / development in vivo (listed as B Box) | aggregate biofilm formation / development in vivo (listed as B box)
1 | rHMGB1: tagless human recombinant full length HMGB1 (1-215) expressed in E. coli | significantly fewer | significantly fewer Bc in BAL | prevent biofilm formation in vivo | severe inflammation and an increased neutrophil response | – | – | –
2 | mHMGB1: engineered C45S variant of full length rHMGB1 that mimics the reduced form of HMGB1 (protein, UniProt P09429 1-215, looked up, variant C45S, full-length, engineered C45S variant of full length rHMGB1 that mimics the reduced form of HMGB1) MGKGDPKKPRGKMSSYAFFVQTCREEHKKKHPDASVNFSEFSKKSSERWKTMSAKEKGKFEDMAKADKARYEREMKTYIPPKGETKKKFKDPNAPKRPPSAFFLFCSEYRPKIKGEHPGLSIGDVAKKLGEMWNNTAADDKQPYEKKAAKLKEKYEKDIAAYRAKGKPDAAKKGVVKAEKSKKKKEEEEDEEDEEDEEEEEDEEDEDEEEDDDDE | significantly fewer | significantly fewer Bc in BAL | inhibited aggregate biofilm formation | more closely resembled uninfected mouse lungs | did not enhance the inflammatory response | – | –
3 | B-linker Box: HMGB1 B Box with N- and C-terminal linker (80-179; 80 to 176 in b258), 97 amino acid (protein, UniProt P09429 80-179, looked up, fragment) PPKGETKKKFKDPNAPKRPPSAFFLFCSEYRPKIKGEHPGLSIGDVAKKLGEMWNNTAADDKQPYEKKAAKLKEKYEKDIAAYRAKGKPDAAKKGVVKAE | – | decreased CFU in BAL | – | – | – | inhibit biofilm development in vivo | prevent biofilm formation in vivo
